Source: the supplement of paper PMC12764529
± gives the half width of the 95% confidence interval.

Assays:
[1] = folding stability dG unfold from trypsin proteolysis; higher = more stable
How it was run: (§1)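 Unfolding free energy was derived, per protease or combined, against a sequence-predicted unfolded-state K50 and a shared folded-state K50, starting from K50 inferred by Bayesian fitting of sequencing counts. Digestion with trypsin and chymotrypsin was carried out on designed mini-proteins under 80 residues without cysteine in a PA-tagged cDNA display construct. Only designs with AlphaFold2 dimer inter-PAE above 15 were kept.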

[2] = folding stability dG unfold from chymotrypsin proteolysis; higher = more stable
How it was run: as §1

[3] = folding stability dG unfold (combined trypsin and chymotrypsin); higher = more stable
How it was run: as §1

Row | Sequence | folding stability dG unfold [1] [kcal/mol] | folding stability dG unfold [2] [kcal/mol] | folding stability dG unfold [3] [kcal/mol]
1 | SAGGSSSLSGLKNVTEEPRLAPDSDEEEVLITYENGYLERREPGVLEFYDPENGKVLSKKNVPYHHSAGGSA [r2_374_JUSTAS] | -0.806 ± 0.35 | -0.0765 ± 0.3 | -0.326 ± 0.3
2 | QRVLPFKNPDGDYWVMIMNPNGDPLVEHRIPNDPEQMEKAIHKLMEQLPNFDPEDLRIAVMNPKNGESQEIS [r1_55_TrROS] | 0.222 ± 0.16 | 0.868 ± 0.12 | 0.61 ± 0.13
3 | SAGGSAGGSAGGETIELKLPNGKVLRVEKDKEKGKTYKIYDTKTKKLVKTFKSKEALKKASAGGSAGGSAGG [r7_72_TrROS_Hall] | 0.755 ± 0.07 | 1.19 ± 0.17 | 1.02 ± 0.11
4 | SAGMPITVDSEVDPETGTTTYTITMPRGPGEPVTVTIPVTYSDDSVTIEVTASPGVDAAEIKALIEKQSSAG [r5_478_JUSTAS] | 0.645 ± 0.053 | 0.34 ± 0.22 | 0.597 ± 0.11
5 | SAGGSAGGSAGRRIVFQFPLGMPIDEIADELADNGYEVEINWEPDPNGWMTFVIEITPPDSAGGSAGGSAGG [r11_1050_TrROS] | 1.45 ± 0.016 | 2.31 ± 0.097 | 1.97 ± 0.11
6 | SAGGSAGGSAGVVLTEDGYAVATVTVTTTTVEYDEETGEWKETTTTTTETLTVVVPVGATSAGGSAGGSAGG [r17_527_TrROS_Hall] | 2.66 ± 0.2 | 1.6 ± 0.14 | 2.22 ± 0.098
7 | SAGGSADYVFVRIEVRDPKNKQPMSIMIPVPPDMTPDEAIEEAEMIANTFKEKGLEITVEVEPMPPSAGGSA [r15_268_TrROS] | 1.44 ± 0.24 | 1.56 ± 0.13 | 1.45 ± 0.22
8 | SAGGSAMIKTSYDPNGKTIYTIPETGAVITVDPSTGKVTVEVDPESQANNPLPEEEVKKLAEEVLKSAGGSA [r15_735_JUSTAS] | 0.481 ± 0.049 | 1.34 ± 0.018 | 1.1 ± 0.043
9 | SAGGKGKAVPFEIEFEAPGGKKVKAKITRIDLPDKPIYRVEVEVDGKKITYTATEDEAANLTFTPGGSAGGS [r8_257_TrMRF] | 1.48 ± 0.058 | 2.21 ± 0.035 | 1.92 ± 0.16
10 | SPIKLPIVFPNLPKEEAKEAVEALAKELEEKYGFKIEVEVEELRAPDGKLVAVVAIATIEKFGEEDKLLFSA [r9_21_TrMRF] | 1.3 ± 0.08 | 1.12 ± 0.14 | 1.2 ± 0.18
11 | SAGGSMITLTFPAPREVAVPAIEAAAEKHGVTILSVEFDPATGRLTVTVDSSLPEEEVRAMVAAVLASAGGS [r8_338_JUSTAS] | 4.75 ± 0.24 | 4.47 ± 0.058 | 4.57 ± 0.075
12 | SAGGATRIRVLATNASGEKVELDIPQAIADAIAEALKQGKPIPPGPASVIAAFATSNGYDFEIVDISSAGGS [r8_159_TrMRF] | 2.02 ± 0.062 | 3.106 ± 0.031 | 2.85 ± 0.093
13 | SAGGSAGGSAGGPKVEIVEVTVEGDKVTIRVKNEETGEWVTLEVTLKDLPKVTFVLKPKSAGGSAGGSAGGS [r10_655_TrROS_Hall] | 1.17 ± 0.032 | 1.16 ± 0.19 | 1.19 ± 0.11
14 | SAGGSAGGSAPWRIRIRDPNGKKVEIPWEEVADKFGIPPEEMTLDDILEAFANNIDRIEIVDSAGGSAGGSA [r18_403_TrROS] | 0.91 ± 0.067 | 0.361 ± 0.12 | 0.64 ± 0.081
15 | SAGGSAGGEIPADAEIEEFEFGGKPYFLVRFPDGTAALYERKGDKWELIATVPVPPDSRIFFKGSAGGSAGG [r6_475_TrMRF] | 0.946 ± 0.037 | 1.19 ± 0.086 | 1.12 ± 0.041
16 | SAGGSAGGSAGTKTITLPNGLTLTIKPDEPVTITLVKVDPETNEIVEEKTITVYVKEDDLSAGGSAGGSAGG [r11_497_TrROS_Hall] | 1.08 ± 0.021 | 1.19 ± 0.061 | 1.2 ± 0.076
17 | SAMVVSEELSPEGTRTTTTFNPATGTSTTTTTPIPEEPPLPPVSIPTSLSPEEREALREELEAAGVPVVLGS [r1_242_JUSTAS] | 1.22 ± 0.047 | 0.0811 ± 0.093 | 0.652 ± 0.079
18 | SAGGGIEREVAPDEVVEIPIVRIEGDVAREETIEIRLPAGARIEPSGDKIRLWFPEEGKVLEIPLTELSAGG [r13_275_TrMRF] | -0.0241 ± 0.065 | -0.079 ± 0.059 | -0.0226 ± 0.096
19 | SAGGSAGGSWIWVIKIENPEKGREYTFFIPGPLEDIKDHIREWNPDPDVKVEIQRIPVSPEAFSAGGSAGGS [r12_92_TrROS] | 1.68 ± 0.054 | 2.11 ± 0.096 | 1.89 ± 0.094
20 | SAGGSAGGAEIVEIEVRKEKRPDGKEVLTVKVKIKLENGEEIEVTVREGMTLEEALKKAKELLKSAGGSAGG [r6_986_TrROS_Hall] | 2.1 ± 0.086 | 2.75 ± 0.12 | 2.56 ± 0.14
21 | SAGGSAGGSAGEIENPSLLSQIVPRKVKVTTEIRKLPNGSYETVTTVTYGSTTTTTTSSGATSAGGSAGGSA [r18_335_JUSTAS] | 0.163 ± 0.048 | -0.256 ± 0.15 | 0.0269 ± 0.096

Row | Sequence | folding stability dG unfold [1] [kcal/mol] | folding stability dG unfold [2] [kcal/mol] | folding stability dG unfold [3] [kcal/mol]
22 | SAGGSAGGSAGLPPGDYRLFPFTVTITIPPIKVKDPNGDEHEIDNLEISITIYFFVPAGDSAGGSAGGSAGG [r11_907_TrROS] | 3.43 ± 0.15 | 4.58 ± 0.12 | 4.03 ± 0.34
23 | SAGGSAGGSGVLVRITATHPDGSTEEVLEIEVPNDENDPAKLKAIAEELAKKAGMKNIKIELLSAGGSAGGS [r12_569_JUSTAS] | 1.95 ± 0.047 | 2.49 ± 0.027 | 2.31 ± 0.07
24 | SAGMPLSVEEAIALLRKEIEAIPVPPSVTEIEFEITIPADGRPVKITVKVNEGKLEITVTVGDKPIKIGSAG [r14_199_JUSTAS] | 1.79 ± 0.14 | 2.3 ± 0.07 | 2.17 ± 0.11
25 | SKTIYIPKNVPIDYILKVVKEAEKKGKPVKIVIETYNNPKVIEALKKAGYKVEIKEDKKKKITLIVVYPESA [r9_759_TrMRF] | 3.33 ± 0.2 | 4.35 ± 0.11 | 4.2 ± 0.39
26 | SAGKKTIMIFIPGNMPLDTLKSALRNLPPNVEIHIMYPGQMQTITYDPDDIEIELPPGFPNFYIMIEVPSAG [r5_373_TrROS] | 2.68 ± 0.13 | 2.646 ± 0.017 | 2.72 ± 0.057
27 | SAGGMLILIKVKNKKYEIEINGKKIEVEEKDGYLIIKVSPEALEALKKIPNLENIEEIKIFPEEELKSAGGS [r8_493_TrROS_Hall] | 2.07 ± 0.035 | 2.57 ± 0.033 | 2.32 ± 0.089
28 | SAGGSAEIELPEGAKVEVTEVEVDGELYLRMKVVDEETGEVFVMEMRMRPDGEMEMEVKKIPKEELSAGGSA [r15_986_TrROS_Hall] | 1.3 ± 0.19 | 2.2 ± 0.34 | 1.85 ± 0.27
29 | SAGGSAGGSAVPLTVLEEEKGEGTVVVITRGPDGKLIVTTYTKDPNSEKWTEKRTVLAPEELLSAGGSAGGS [r20_70_JUSTAS] | 1.73 ± 0.022 | 2.08 ± 0.067 | 1.98 ± 0.054
30 | SAGGKVYRLPDGTRVLEVEVDGELYRLVVRRPDGEELVLEFESREEALEAAKALAEAGWEIVAVERVPSAGG [r13_727_TrROS_Hall] | 0.787 ± 0.038 | 0.807 ± 0.062 | 0.86 ± 0.06
31 | SAGGSAGGSPVLLAESVTTLPDGTVVRTRLVRLPDGTYLRETETYPPGGAPARAVERFDDPRLASAGGSAGG [r6_299_JUSTAS] | 1.66 ± 0.039 | 3.505 ± 0.023 | 3.07 ± 0.059
32 | SAGGKEKKPKVELKITSISEFEGGLVIEGEATTPTKKIKVLAVYDPSTGKITVWRETPEGIEPLAEFGSAGG [r13_445_TrMRF] | 1.76 ± 0.059 | 2.401 ± 0.018 | 2.18 ± 0.049
33 | SAGGSAGGIEAVREALEDMPPGEEKEITIPVPGDPNYYIKFTIRTKGNKIKIPIEIEPMPPGQMSAGGSAGG [r6_393_TrROS] | 0.632 ± 0.16 | 1.63 ± 0.39 | 1.08 ± 0.38
34 | SAGGKKKKKKPKIVRVKITLKNENGEEIEIDEAVILPDGTILIRDKKTGKIFEIKLDDITKIEIEEVSAGGS [r8_410_TrROS_Hall] | 1.99 ± 0.086 | 3.02 ± 0.098 | 2.8 ± 0.17
35 | SAGGSAGGSAGGDKKDPGQPRQEVEIEIPVYDPNGKPKGPIEITMPAGQSLDEIADEIFNSAGGSAGGSAGG [r7_110_TrROS] | 0.758 ± 0.068 | 1.05 ± 0.049 | 0.937 ± 0.13
36 | SAGGKKNEKKPIEIDGVFFNPETGKLVKIGPAKIIVPKNAKIELEAEVFDPVTGEVKKVKFKFELPAGSAGG [r13_206_TrMRF] | 0.548 ± 0.057 | 0.816 ± 0.094 | 0.699 ± 0.14
37 | SAMEIEIEPLEKEELLKLPGAEIRLFYFPDRVLAEILLPDGTPFFVEFDPSLKPEEVLEKLLKLLEELGSAG [r14_618_TrMRF] | 3.98 ± 0.18 | 4.29 ± 0.1 | 4.23 ± 0.13
38 | SAGGSAGGSAGGSAPPNLIIFIHVEIKIKEPKFDPGNGKPEYEIEITDIPIQIMPPDDLSAGGSAGGSAGGS [r4_417_TrROS] | 2.15 ± 0.16 | 2.39 ± 0.088 | 2.26 ± 0.11
39 | SAGGSAGGSAGNPPNKPKPIIKVVPFRYRFYIPETGSVIEIDIYVFEDDTVKIKIKTYPLSAGGSAGGSAGG [r11_883_TrMRF] | 3.73 ± 0.28 | 5.38 ± 0.2 | 5.03 ± 0.22
40 | SAEVVIVIEPGMTEEQVRARLKAALEEALRKGKKVKKIVVKSEEAARRIRDLLKELGVPEEDVEVVLLPSAG [r14_589_TrROS_Hall] | 4.92 ± 0.51 | 3.45 ± 0.17 | 4.93 ± 0.36
41 | SAGGSAGMMATKPVEVEVEIPPDDPEAAKERVEAEIKAAFPGPVEVETTSYDPEKGLLKVKVVIKKSAGGSA [r15_1024_JUSTAS] | -0.497 ± 0.41 | 0.0964 ± 0.19 | 0.256 ± 0.33
42 | SAGGSAGGSAGGMTLRIRVRNKDGKVLEIEVEVDEDKTPEEVARELAKKLNVEKVEIFPSAGGSAGGSAGGS [r10_400_TrROS_Hall] | 2.2 ± 0.07 | 2.32 ± 0.038 | 2.28 ± 0.13
